Columns and labels:
Format in all cases: biochemical, E. coli
[1] = system: T1, CC(C)[C@H](N)C(=O)O; test: Colorimetric assay based on valine as substrate (valine-based assay of the invention); settings: other: non-cognate amino acid substrate of ITRS; pH 7.4; 37.0 °C
T1 construct: endogenous in cells; enzyme partially purified in house
Experimental: (§1) 2. Measurement of ITRS activity using a Colorimetric Assay based on using Valine as Substrate
(§2) Incubations were set up in quadruplicate (as above) with a final volume of 200 μl as described below. Stock reagents used in the method were as follows:
(§3) Prepared as described above. The specific activity of the enzyme used in the present example was approximately 145 nM of product formed/minute/mg, and was about 5%-10% active. The enzyme was diluted as appropriate. It will be appreciated that the enzyme amounts in the assay can be adjusted according to the purity of the enzyme used.
(§4) The assay mixture for a final volume of 200 μl was composed of:
(§5) The standard assay (in 200 μl) was carried out in quadruplicate in Eppendorf microcentrifuge tubes. The ingredients were pre-incubated for 2-3 minutes at 37° C. and the reaction started by addition of 20 μl of appropriately diluted enzyme extract (as described above).
(§6) Thus the final reaction contained reagents in the following concentrations:
(§7) 0.12 mg of mixed tRNA species from E. coli (as described above) HPLC purified from […] available from by Sigma (UK) Ltd 1 unit/μl of inorganic pyrophosphatase and
(§8) an appropriate concentration of ITRS (for example […] of the enzyme as described above).
(§9) The samples were incubated at 37° C. for 20-60 minutes. […] The optical absorbance is then measured at a wavelength of 630 nm using a spectrophotometer.

[2] = system: T2, Nc1ncnc2c1ncn2[C@@H]1O[C@H](COP(=O)(O)OP(=O)(O)OP(=O)(O)O)[C@@H](O)[C@H]1O; test: as above; settings: other: colorimetric assay; pH 7.4; 37.0 °C
T2 construct: endogenous in cells; enzyme partially purified in house
Experimental: as §1, §2, §3, §4, §5, §6, §7, §8, §9

[3] = system: T2, Nc1ncnc2c1ncn2[C@@H]1O[C@H](COP(=O)(O)OP(=O)(O)OP(=O)(O)O)[C@@H](O)[C@H]1O; test: 3H-isoleucine-based radiolabelled (standard radiometric) assay; settings: other: 3H-Ile assay; pH 7.4; 37.0 °C
Experimental: (§10) 2. Measurement of ITRS Activity using a ^3 H-Isoleucine-Based Radiolabelled Assay
(§11) The activity of ITRS during fractionation was monitored using conditions based on the method described by Steinmetz and Weil (7), and as described below. Stock reagents used in the method are as follows:
as §3, §4
(§12) The standard assay (in 200 μl) was carried out in quadruplicate in Eppendorf microcentrifuge tubes. The ingredients were preincubated for 2-3 minutes at 37° C., and the reaction started by addition of approximately 20 μl of the appropriately diluted enzyme extract as described above.
(§13) The final reaction contained reagents in the following concentrations:
(§14) 0.1% bovine serum albumin […]
(§15) 200 μl of the reaction mixture was pipetted onto 1.5 cm^2 cellulose 3MM filters. […] The dried filters were placed in 20 ml scintillation vials and the radioactivity counted in 15 ml Optiphase.
(§16) The inhibition constants of two compounds were measured and the results compared with the values obtained using the standard ^3 H-isoleucine assay.

[4] = system: T3, CC[C@H](C)[C@H](N)C(=O)O; test: as above; settings: other: 3H-Ile assay; pH 7.4; 37.0 °C
T3 construct: endogenous in cells; enzyme partially purified in house
Experimental: as §10, §11, §3, §4, §12, §13, §14, §15, §16

E. coli ITRS (isoleucyl-tRNA synthetase) (Escherichia coli K-12)
Km [1]: 500 µM | Km [2]: 48 µM | Km [3]: 47 µM | Km [4]: 4.3 µM

From patent US5985630A, “Assay for detecting inhibitors of aminoacyl-tRNA synthetases” (Zeneca Limited, priority 1993, dated 1999)
